Results reported in publication PMC10766989, “The juxtamembrane linker of synaptotagmin 1 regulates Ca^2+ binding via liquid-liquid phase separation” (Nature Communications, 2024).

Target: the molecule itself
Test: dynamic light scattering; protein in solution, 10 µM, 25 mM Tris pH 7.4, 3% PEG 8000, NaCl as indicated (lower ionic strength); diameters modelled as Rayleigh spheres; monomers against higher ordered structures

B1: GFP-syt1 (80–142) (domain or fragment, UniProt P21707 80-142, looked up)
chain: KKCLFKKKNKKKGKEKGGKNAINMKDVKDLGKTMKDQALKDDDAETGLTDGEEKEEPKEEEKL
notes: synaptotagmin 1 (syt1), juxtamembrane linker, residues 80–142; also called GFP-tagged juxtamembrane linker (80–142); isolated juxtamembrane linker (residues 80–142); source: E. coli BL21(DE3), purified (Ni-NTA, eluted with 200 mM imidazole, dialysed); not shown: msGFP (no linker), N-terminal, kept
**Q.** Does B1 bind?
**A.** Result: binds
